Results published in article PMC9352680, “A comprehensive thermodynamic model for RNA binding by the Saccharomyces cerevisiae Pumilio protein PUF4”.

T1: PUF4 RNA-binding domain (Saccharomyces cerevisiae, UniProt P25339 537-888)
T1 sequence: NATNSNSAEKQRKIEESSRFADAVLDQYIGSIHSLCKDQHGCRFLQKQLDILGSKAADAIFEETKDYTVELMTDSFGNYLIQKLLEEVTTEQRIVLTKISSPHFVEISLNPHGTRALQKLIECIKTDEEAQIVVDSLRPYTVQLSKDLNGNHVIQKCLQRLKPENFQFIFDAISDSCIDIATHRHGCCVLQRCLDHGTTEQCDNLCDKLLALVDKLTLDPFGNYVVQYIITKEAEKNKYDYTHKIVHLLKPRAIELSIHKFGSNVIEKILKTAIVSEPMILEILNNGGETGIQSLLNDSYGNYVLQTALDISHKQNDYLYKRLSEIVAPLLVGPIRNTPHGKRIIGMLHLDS


target: T1, PUF4 RNA-binding domain; assay: Mg; RNA-MaP; 20 mM Na-HEPES pH 7.4, 30 mM KOAc, 0.75 mM MgCl2, 0.1% Tween-20, 5% glycerol, 0.1 mg/mL BSA, 2 mM DTT; 25 C; 0.0125-409.6 nM protein; conditions: tags: N-His6-TEV cleaved; C-SNAP kept, Cy3B-labelled; label: tethered on chip by stalled RNA polymerase

Binder	Kd [nM]
UCUCUUUAUAUAAUUAUCUCUU (ssRNA) [Ib_S1_P5E.1_K5.1_C5.1_H5.1_[G2A]_A5.1_[T6A]_F5.1_T5.1]	1010
Id_ii_S4_P4E.2_K4.1_C4.2_[C-2A]_H4.1_A4.1_F4.1_T4.2_[G10A]_[T11A] (ssRNA) RNA: UUUGACAACUGAUCGUUCUUUCUAUUGUAUAUUAAAUUCUUUCUCGAUCAGUUGUCUUU	1.35
Id_ii_S4_P4E.2_K4.1_C4.2_H4.1_A4.1_F4.1_T4.2_[G10A] (ssRNA) RNA: UUUGACAACUGAUCGUUCUUUCUCUUGUAUAUUAAUUUCUUUCUCGAUCAGUUGUCUUU	0.324
Id_ii_S4_P4E.2_K4.1_C4.2_H4.1_A4.1_F4.1_T4.2_[G10T] (ssRNA) RNA: UUUGACAACUGAUCGUUCUUUCUCUUGUAUAUUAUUUUCUUUCUCGAUCAGUUGUCUUU	0.116
Id_ii_S4_P4E.2_K4.1_C4.2_[T-1A]_H4.1_A4.1_F4.1_T4.2_[T11G] (ssRNA) RNA: UUUGACAACUGAUCGUUCUUUCUCAUGUAUAUUAGGUUCUUUCUCGAUCAGUUGUCUUU	1.11
Id_ii_S4_P4E.2_K4.1_C4.2_[T-1C]_H4.1_A4.1_F4.1_T4.2_[G10T]_[T11C] (ssRNA) RNA: UUUGACAACUGAUCGUUCUUUCUCCUGUAUAUUAUCUUCUUUCUCGAUCAGUUGUCUUU	0.317
Id_ii_S4_P4E.3_K4.2_C4.2_[C-2A]_[T-1A]_H4.2_A4.1_F4.1_T4.2_[G10C]_[T11C] (ssRNA) RNA: UUUGACAACUGAUCGUUCUUUCUAAUAUAUAUUACCUUCUUUCUCGAUCAGUUGUCUUU	47.7
Id_ii_S4_P4E.3_K4.2_C4.2_[C-2T]_H4.2_A4.1_F4.1_T4.2_[G10C]_[T11G] (ssRNA) RNA: UUUGACAACUGAUCGUUCUUUCUUUUAUAUAUUACGUUCUUUCUCGAUCAGUUGUCUUU	10.1
Id_ii_S4_P4E.3_K4.2_C4.2_[T-1C]_H4.2_A4.1_F4.1_T4.2_[G10A] (ssRNA) RNA: UUUGACAACUGAUCGUUCUUUCUCCUAUAUAUUAAUUUCUUUCUCGAUCAGUUGUCUUU	4.86
Id_ii_S4_P4E.2_K4.1_C4.2_H4.1_A4.1_F4.1_T4.2_[G10A]_[T11A] (ssRNA) RNA: UUUGACAACUGAUCGUUCUUUCUCUUGUAUAUUAAAUUCUUUCUCGAUCAGUUGUCUUU	0.422
Id_ii_S4_P4E.3_K4.2_C4.2_[C-2G]_H4.2_A4.1_F4.1_T4.2_[G10A] (ssRNA) RNA: UUUGACAACUGAUCGUUCUUUCUGUUAUAUAUUAAUUUCUUUCUCGAUCAGUUGUCUUU	62
Id_ii_S4_P4E.3_K4.2_C4.2_[C-2T]_H4.2_A4.1_F4.1_T4.2_[G10T]_[T11G] (ssRNA) RNA: UUUGACAACUGAUCGUUCUUUCUUUUAUAUAUUAUGUUCUUUCUCGAUCAGUUGUCUUU	8.62
Id_ii_S4_P4E.3_K4.2_C4.2_[C-2A]_[T-1A]_H4.2_A4.1_F4.1_T4.2_[G10C]_[T11G] (ssRNA) RNA: UUUGACAACUGAUCGUUCUUUCUAAUAUAUAUUACGUUCUUUCUCGAUCAGUUGUCUUU	189
Id_ii_S4_P4E.3_K4.2_C4.2_[C-2G]_H4.2_A4.1_F4.1_T4.2_[G10T] (ssRNA) RNA: UUUGACAACUGAUCGUUCUUUCUGUUAUAUAUUAUUUUCUUUCUCGAUCAGUUGUCUUU	10.6
Id_ii_S4_P4E.3_K4.2_C4.2_[C-2A]_[T-1A]_H4.2_A4.1_F4.1_T4.2_[G10T]_[T11C] (ssRNA) RNA: UUUGACAACUGAUCGUUCUUUCUAAUAUAUAUUAUCUUCUUUCUCGAUCAGUUGUCUUU	39.7
Id_ii_S4_P4E.3_K4.2_C4.2_[C-2T]_[T-1G]_H4.2_A4.1_F4.1_T4.2_[G10T]_[T11C] (ssRNA) RNA: UUUGACAACUGAUCGUUCUUUCUUGUAUAUAUUAUCUUCUUUCUCGAUCAGUUGUCUUU	3.99
Id_ii_S4_P4E.3_K4.2_C4.2_[C-2T]_[T-1C]_H4.2_A4.1_F4.1_T4.2_[G10T]_[T11C] (ssRNA) RNA: UUUGACAACUGAUCGUUCUUUCUUCUAUAUAUUAUCUUCUUUCUCGAUCAGUUGUCUUU	5.07
Id_ii_S4_P4E.3_K4.2_C4.2_[C-2G]_[T-1G]_H4.2_A4.1_F4.1_T4.2_[G10A] (ssRNA) RNA: UUUGACAACUGAUCGUUCUUUCUGGUAUAUAUUAAUUUCUUUCUCGAUCAGUUGUCUUU	125
Id_ii_S4_P4E.3_K4.2_C4.2_[C-2A]_[T-1C]_H4.2_A4.1_F4.1_T4.2_[G10T]_[T11A] (ssRNA) RNA: UUUGACAACUGAUCGUUCUUUCUACUAUAUAUUAUAUUCUUUCUCGAUCAGUUGUCUUU	24.6
Id_ii_S4_P4E.3_K4.2_C4.2_[T-1G]_H4.2_A4.1_F4.1_T4.2 (ssRNA) RNA: UUUGACAACUGAUCGUUCUUUCUCGUAUAUAUUAGUUUCUUUCUCGAUCAGUUGUCUUU	8.91
Id_ii_S4_P4E.2_K4.1_C4.2_[T-1G]_H4.1_A4.1_F4.1_T4.2_[G10T] (ssRNA) RNA: UUUGACAACUGAUCGUUCUUUCUCGUGUAUAUUAUUUUCUUUCUCGAUCAGUUGUCUUU	0.196
Id_ii_S4_P4E.2_K4.1_C4.2_[T-1G]_H4.1_A4.1_F4.1_T4.2_[G10A]_[T11G] (ssRNA) RNA: UUUGACAACUGAUCGUUCUUUCUCGUGUAUAUUAAGUUCUUUCUCGAUCAGUUGUCUUU	1.39
Id_ii_S4_P4E.3_K4.2_C4.2_[T-1G]_H4.2_A4.1_F4.1_T4.2_[G10T]_[T11C] (ssRNA) RNA: UUUGACAACUGAUCGUUCUUUCUCGUAUAUAUUAUCUUCUUUCUCGAUCAGUUGUCUUU	13.1
Id_ii_S4_P4E.3_K4.2_C4.2_[C-2T]_[T-1A]_H4.2_A4.1_F4.1_T4.2_[G10C]_[T11G] (ssRNA) RNA: UUUGACAACUGAUCGUUCUUUCUUAUAUAUAUUACGUUCUUUCUCGAUCAGUUGUCUUU	28.4

Binder	Kd [nM]
Id_ii_S4_P4E.3_K4.2_C4.2_[T-1C]_H4.2_A4.1_F4.1_T4.2_[G10C]_[T11G] (ssRNA) RNA: UUUGACAACUGAUCGUUCUUUCUCCUAUAUAUUACGUUCUUUCUCGAUCAGUUGUCUUU	9.21
Id_ii_S4_P4E.3_K4.2_C4.2_[C-2T]_[T-1G]_H4.2_A4.1_F4.1_T4.2_[G10A]_[T11C] (ssRNA) RNA: UUUGACAACUGAUCGUUCUUUCUUGUAUAUAUUAACUUCUUUCUCGAUCAGUUGUCUUU	3.87
Id_ii_S4_P4E.2_K4.1_C4.2_H4.1_A4.1_F4.1_T4.2_[G10C] (ssRNA) RNA: UUUGACAACUGAUCGUUCUUUCUCUUGUAUAUUACUUUCUUUCUCGAUCAGUUGUCUUU	0.434
Id_ii_S4_P4E.3_K4.2_C4.2_[C-2A]_H4.2_A4.1_F4.1_T4.2_[G10C]_[T11A] (ssRNA) RNA: UUUGACAACUGAUCGUUCUUUCUAUUAUAUAUUACAUUCUUUCUCGAUCAGUUGUCUUU	12.2
Id_ii_S4_P4E.3_K4.2_C4.2_[C-2T]_[T-1G]_H4.2_A4.1_F4.1_T4.2_[G10T] (ssRNA) RNA: UUUGACAACUGAUCGUUCUUUCUUGUAUAUAUUAUUUUCUUUCUCGAUCAGUUGUCUUU	1.83
Id_ii_S4_P4E.3_K4.2_C4.2_[C-2T]_[T-1A]_H4.2_A4.1_F4.1_T4.2_[G10A]_[T11A] (ssRNA) RNA: UUUGACAACUGAUCGUUCUUUCUUAUAUAUAUUAAAUUCUUUCUCGAUCAGUUGUCUUU	42
Id_ii_S4_P4E.2_K4.1_C4.2_[T-1C]_H4.1_A4.1_F4.1_T4.2_[G10A]_[T11A] (ssRNA) RNA: UUUGACAACUGAUCGUUCUUUCUCCUGUAUAUUAAAUUCUUUCUCGAUCAGUUGUCUUU	0.435
Id_ii_S4_P4E.3_K4.2_C4.2_[C-2G]_[T-1C]_H4.2_A4.1_F4.1_T4.2_[G10T]_[T11C] (ssRNA) RNA: UUUGACAACUGAUCGUUCUUUCUGCUAUAUAUUAUCUUCUUUCUCGAUCAGUUGUCUUU	19.6
Id_ii_S4_P4E.3_K4.2_C4.2_[C-2A]_[T-1C]_H4.2_A4.1_F4.1_T4.2_[G10T]_[T11C] (ssRNA) RNA: UUUGACAACUGAUCGUUCUUUCUACUAUAUAUUAUCUUCUUUCUCGAUCAGUUGUCUUU	6.68
Id_ii_S4_P4E.3_K4.2_C4.2_[C-2T]_[T-1C]_H4.2_A4.1_F4.1_T4.2_[G10C]_[T11A] (ssRNA) RNA: UUUGACAACUGAUCGUUCUUUCUUCUAUAUAUUACAUUCUUUCUCGAUCAGUUGUCUUU	12.6
Id_ii_S4_P4E.3_K4.2_C4.2_[C-2T]_H4.2_A4.1_F4.1_T4.2_[G10T]_[T11A] (ssRNA) RNA: UUUGACAACUGAUCGUUCUUUCUUUUAUAUAUUAUAUUCUUUCUCGAUCAGUUGUCUUU	25.9
Id_ii_S4_P4E.3_K4.2_C4.2_[T-1G]_H4.2_A4.1_F4.1_T4.2_[G10A] (ssRNA) RNA: UUUGACAACUGAUCGUUCUUUCUCGUAUAUAUUAAUUUCUUUCUCGAUCAGUUGUCUUU	12.4
Id_ii_S4_P4E.3_K4.2_C4.2_[C-2T]_[T-1C]_H4.2_A4.1_F4.1_T4.2_[G10T]_[T11A] (ssRNA) RNA: UUUGACAACUGAUCGUUCUUUCUUCUAUAUAUUAUAUUCUUUCUCGAUCAGUUGUCUUU	12
Id_ii_S4_P4E.2_K4.1_C4.2_[T-1G]_H4.1_A4.1_F4.1_T4.2 (ssRNA) RNA: UUUGACAACUGAUCGUUCUUUCUCGUGUAUAUUAGUUUCUUUCUCGAUCAGUUGUCUUU	0.364
Id_ii_S4_P4E.2_K4.1_C4.2_[T-1C]_H4.1_A4.1_F4.1_T4.2_[G10T]_[T11G] (ssRNA) RNA: UUUGACAACUGAUCGUUCUUUCUCCUGUAUAUUAUGUUCUUUCUCGAUCAGUUGUCUUU	0.173
Id_ii_S4_P4E.3_K4.2_C4.2_[C-2T]_H4.2_A4.1_F4.1_T4.2_[G10C]_[T11C] (ssRNA) RNA: UUUGACAACUGAUCGUUCUUUCUUUUAUAUAUUACCUUCUUUCUCGAUCAGUUGUCUUU	9.36
Id_ii_S4_P4E.3_K4.2_C4.2_[C-2G]_H4.2_A4.1_F4.1_T4.2_[G10C] (ssRNA) RNA: UUUGACAACUGAUCGUUCUUUCUGUUAUAUAUUACUUUCUUUCUCGAUCAGUUGUCUUU	38.1
Id_ii_S4_P4E.2_K4.1_C4.2_[T-1A]_H4.1_A4.1_F4.1_T4.2_[G10A] (ssRNA) RNA: UUUGACAACUGAUCGUUCUUUCUCAUGUAUAUUAAUUUCUUUCUCGAUCAGUUGUCUUU	0.453
Id_ii_S4_P4E.3_K4.2_C4.2_[C-2T]_[T-1C]_H4.2_A4.1_F4.1_T4.2_[G10A] (ssRNA) RNA: UUUGACAACUGAUCGUUCUUUCUUCUAUAUAUUAAUUUCUUUCUCGAUCAGUUGUCUUU	10.2
UCUCUUUGUAUAAUUAUCUCUU (ssRNA) [Ia_S1_P5E.1_K5.1_C5.1_H5.1_A5.1_[T6A]_F5.1_T5.1]	5.23
UCUCUUUUUAUUUUUAUCUCUU (ssRNA) [Ib_S1_P5E.1_K5.1_C5.1_H5.1_[G2T]_A5.1_[A7T]_F5.1_T5.1]	> 2300
UCUCUUUAUAUCAUUAUCUCUU (ssRNA) [Ib_S1_P5E.1_K5.1_C5.1_H5.1_[G2A]_A5.1_[T6C]_F5.1_T5.1]	752
UCUCUUUCUAUUUUUAUCUCUU (ssRNA) [Ib_S1_P5E.1_K5.1_C5.1_H5.1_[G2C]_A5.1_[A7T]_F5.1_T5.1]	> 2300
UCUCUUUUUAUUCUUAUCUCUU (ssRNA) [Ib_S1_P5E.1_K5.1_C5.1_H5.1_[G2T]_A5.1_[A7C]_F5.1_T5.1]	> 2300
